Entries after “also recorded” stand apart in the source; their conditions may differ.
Tests used:
[1] = system: ALS patients; details: some ALS patients; cited from earlier work
[2] = system: FUS/TLS toxicity in yeast; details: yeast model of ALS; Ju et al., PLoS Biol. 2011; cited from earlier work
[3] = system: ALS-associated TDP-43 mutations in yeast; assay: Yeast model of ALS: suppression of cytotoxicity of TDP-43 mutations; format: cell-based
[4] = system: TDP-43; assay: Cytoplasmic level of TDP-43 in neuronal cells expressing UPF1; format: cell-based; details: expression of UPF1
Source text: (§1) The present invention encompasses the surprising finding that NMD agents are useful, among other things, in the treatment or prevention (i.e., delay of onset) of ALS. […] Accordingly, in some embodiments, an NMD agent is provided to the central nervous system of a subject, e.g., a subject suffering from or susceptible to ALS. In some embodiments, an NMD agent is provided to one or more of target cells or tissues of brain, spinal cord, and/or peripheral organs. In some embodiments, target cells or tissues include those cells or tissues that display a disease-associated pathology, symptom, or feature. In some embodiments, target cells or tissues include those cells or tissues in which TDP-43 or FUS/TLS is expressed at an elevated level, e.g., cells in which TDP-43 or FUS/TLS is expressed at an elevated level in the cytoplasm of the cells. As used herein, a target tissue may be a brain target tissue, a spinal cord target tissue and/or a peripheral target tissue.

[5] = system: wild type neurons; assay: Kaplan-Meyer survival of wild type motor neurons expressing UPF1; format: cell-based, mice or human; details: UPF1 expression in motor neurons; FIG. 1A
Source text: (§2) To test the efficacy of UPF1 in reducing TDP-43 or FUS-mediated cytotoxicity in neurons, UPF1 was expressed in motor neurons expressing disease-associated FUS or TDP-43. Motor neurons were either isolated from mice or created from fibroblasts taken from human ALS patients using iPS cell techniques (described in Yamanaka et al., Cell 126:663-676 (2006)). FUS or TDP-43 were tagged with EGFP (Enhanced Green Fluorescent Protein) and expressed in motor neurons, which were visualized by fluorescent microscopy using mApple.
(§3) The motor neurons died within a few days of FUS or TDP-43 expression due to toxicity of these ALS-related proteins. UPF1 was expressed in the motor neurons and Kaplan-Meyer survival curves were determined.

[6] = system: FUS/TLS; assay: Cytoplasmic level of FUS/TLS in neuronal cells expressing UPF1; format: cell-based; details: expression of UPF1
Source text: as §1

[7] = system: ALS-associated mutants of SOD1; assay: Rescue of toxicity of ALS-associated mutants of SOD1 by UPF1 expression; format: cell-based
[8] = system: motor neurons expressing TDP-43; assay: Kaplan-Meyer survival of motor neurons expressing disease-associated TDP-43 and UPF1; format: cell-based, mice or human; details: UPF1 expressed in motor neurons expressing EGFP-tagged TDP-43; FIG. 1B
Source text: as §2, §3

[9] = system: motor neurons expressing FUS; assay: Survival of motor neurons expressing disease-associated FUS and UPF1; format: cell-based, mice or human; details: UPF1 expressed in cells expressing FUS; data not shown
Source text: as §2, §3

In the case of `Nc1nc2ccc(OC(F)(F)F)cc2s1` [riluzole], the “extension of lifespan of ALS patients” value [1] is given as “about 3 months”.

B1: UPF1: protein involved in nonsense-mediated mRNA decay (NMD), expressed in neurons; amino acid sequence SEQ ID NO: 2 (protein, listed as Homo sapiens)
chain: MSVEAYGPSSQTLTFLDTEEAELLGADTQGSEFEFTDFTLPSQTQTPPGGPGGPGGGGAGSPGGAGAGAAAGQLDAQVGPEGILQNGAVDDSVAKTSQLLAELNFEEDEEDTYYTKDLPIHACSYCGIHDPACVVYCNTSKKWFCNGRGNTSGSHIVNHLVRAKCKEVTLHKDGPLGETVLECYNCGCRNVFLLGFIPAKADSVVVLLCRQPCASQSSLKDINWDSSQWQPLIQDRCFLSWLVKIPSEQEQLRARQITAQQINKLEELWKENPSATLEDLEKPGVDEEPQHVLLRYEDAYQYQNIFGPLVKLEADYDKKLKESQTQDNITVRWDLGLNKKRIAYFTLPKTDSDMRLMQGDEICLRYKGDLAPLWKGIGHVIKVPDNYGDEIAIELRSSVGAPVEVTHNFQVDFVWKSTSFDRMQSALKTFAVDETSVSGYIYHKLLGHEVEDVITKCQLPKRFTAQGLPDLNHSQVYAVKTVLQRPLSLIQGPPGTGKTVTSATIVYHLARQGNGPVLVCAPSNIAVDQLTEKIHQTGLKVVRLCAKSREAIDSPVSFLALHNQIRNMDSMPELQKLQQLKDETGELSSADEKRYRALKRTAERELLMNADVICCTCVGAGDPRLAKMQFRSILIDESTQATEPECMVPVVLGAKQLILVGDHCQLGPVVMCKKAAKAGLSQSLFERLVVLGIRPIRLQVQYRMHPALSAFPSNIFYEGSLQNGVTAADRVKKGFDFQWPQPDKPMFFYVTQGQEEIASSGTSYLNRTEAANVEKITTKLLKAGAKPDQIGIITPYEGQRSYLVQYMQFSGSLHTKLYQEVEIASVDAFQGREKDFIILSCVRANEHQGIGFLNDPRRLNVALTRARYGVIIVGNPKALSKQPLWNHLLNYYKEQKVLVEGPLNNLRESLMQFSKPRKLVNTINPGARFMTTAMYDAREAIIPGSVYDRSSQGRPSSMYFQTHDQIGMISAGPSHVAAMNIPIPFNLVMPPMPPPGYFGQANGPAAGRGTPKGKTGRGGRQKNRFGLPGPSQTNLPNSQASQDVASQPFSQGALTQGYISMSQPSQMSQPGLSQPELSQDSYLGDEFKSQIDVALSQDSTYQGERAYQHGGVTGLSQY
In the case of B1, the “toxicity of FUS/TLS in yeast” value [2] is given as “able to rescue toxicity; also recorded: suppressed toxicity”, the “cytotoxicity of ALS-associated TDP-43 mutations in yeast” value [3] is given as “able to suppress the cytotoxicity” and the “cytoplasmic levels of TDP-43 in the neuronal cells” value [4] is given as “no effect”. For the same molecule, the “effect on survival of wild type neurons” value [5] was “no effect”, the “cytoplasmic levels of FUS/TLS in the neuronal cells” value [6] was “no effect” and the “rescue of toxicity of ALS-associated mutants of SOD1” value [7] was “unable to rescue”. For the same molecule, the “toxicity of TDP-43 in motor neurons” value [8] was “reduces cellular toxicity; also recorded: completely eliminate the toxicity of TDP-43 in a dose-dependent manner” and the “toxicity of FUS in motor neurons” value [9] was “reduces cellular toxicity”.
